# Where a chain is given by its changes, count along the chain named. Names and notes keep the numbering of the source.
# B1: pMT2: pMT1 with Y200F (protein)
# chain: MPQEARTPQQQVTADEVGDWYDKFGEVYHLTLGESVHCGLWFPPDAPVPQDMELVTMSSQAQDRYTDYLIETLDPKAGQHLLDIGCGTGRTALKAARQRGIAVTGVAVSKEQIAAANRLAAGHGLTERLTFEVADAMRLPYEDESFDCAWAIESLCHMDRAKALGEAWRVLKPGGDLLVLESVVTEELTEPETALFETLFAANVPPRLGEFFDIVSGAGFHTLSLKDLSANLAMTMNVFALGVYSRRAEFTERFGAEFVDGLLAGLGSAQETLIRKTRFFMATLRKPAV
# modifications: Modified from pMT1
# notes: pMT1 with Y200F
# B2: pMT8: pMT1 with Y200F S182E L273V L180A A202L C156P (protein)
# chain: B1 chain with C156P, L180A, S182E, A202L, L273V
# modifications: Modified from pMT1
# notes: pMT1 with Y200F S182E L273V L180A A202L C156P
# B3: pMT1_M236K: pMT1 with M236K (protein)
# chain: B1 chain with F200Y, M236K
# B4: pMT1_R160H: pMT1 with R160H (protein)
# chain: B1 chain with R160H, F200Y
# B5: pMT1_E153F: pMT1 with E153F (protein)
# chain: B1 chain with E153F, F200Y
# B6: pMT1_E153I: pMT1 with E153I (protein)
# chain: B1 chain with E153I, F200Y
# B7: pMT1_Y200K: pMT1 with Y200K (protein)
# chain: B1 chain with F200K
# B8: pMT1_M236H: pMT1 with M236H (protein)
# chain: B1 chain with F200Y, M236H
# B9: pMT1_M236I: pMT1 with M236I (protein)
# chain: B1 chain with F200Y, M236I
# B10: pMT1_R160G (protein)
# chain: B1 chain with R160G, F200Y
# B11: pMT1_R160K: pMT1 with R160K (protein)
# chain: B1 chain with R160K, F200Y
# B12: pMT1_R160I: pMT1 with R160I (protein)
# chain: B1 chain with R160I, F200Y
# B13: pMT5: pMT1 with Y200F S182E L273V L180A (protein)
# chain: B1 chain with L180A, S182E, L273V
# modifications: Modified from pMT1
# notes: pMT1 with Y200F S182E L273V L180A
# B14: pMT1_M236G: pMT1 with M236G (protein)
# chain: B1 chain with F200Y, M236G
# B15: pMT6: pMT1 with Y200F S182E L273V L180A A202L (protein)
# chain: B1 chain with L180A, S182E, A202L, L273V
# modifications: Modified from pMT1
# notes: pMT1 with Y200F S182E L273V L180A A202L
# B16: pMT1_Y200L: pMT1 with Y200L (protein)
# chain: B1 chain with F200L
# B17: pMT1_E153G: pMT1 with E153G (protein)
# chain: B1 chain with E153G, F200Y
# B18: pMT1_Y200I: pMT1 with Y200I (protein)
# chain: B1 chain with F200I
# B19: pMT1_R160F: pMT1 with R160F (protein)
# chain: B1 chain with R160F, F200Y
# B20: pMT1_E153H: pMT1 with E153H (protein)
# chain: B1 chain with E153H, F200Y
# B21: pMT9: pMT1 with Y200F S182E L273V L180A A202L Y65F C156A (protein)
# chain: B1 chain with C156A, L180A, S182E, A202L, L273V
# modifications: Modified from pMT1
# notes: pMT1 with Y200F S182E L273V L180A A202L Y65F C156A
# B22: pMT1_Y200H: pMT1 with Y200H (protein)
# chain: B1 chain with F200H
# B23: pMT1_Y200G: pMT1 with Y200G (protein)
# chain: B1 chain with F200G
# B24: pMT1_M236F: pMT1 with M236F (protein)
# chain: B1 chain with F200Y, M236F
# Assay: Cell lysate reaction of pMT enzymes with psi-ionone, irones quantified by HS-SPME-GCMS
# Format: biochemical
# Details: for cis-α-irone content (percentage of cis-α-irone in the irone mixture): cell extracts with psi-ionone; for fold change in cis-α-irone produced: AUC vs non-mutated (=1); for irone production / methyltransferase activity towards psi-ionone (in words): cell lysate reaction, vs parent or control
# Description: Using the structure of pMT1 in complex with the cofactor S-adenosyl-L-homocysteine (SAH) and the substrate teleocidin A1 (PDB id: 5GM2) as a template, pMT1 bound to each of the four isomers of α-irone was modelled with the aim of identifying amino acid residues that could be critical to increase cis-α-irone or decrease trans-α-irone production (FIGS. 2d and 2e). […] Site-directed mutagenesis of the 24 residues was carried out with degenerative primers. Subsequently, the mutants of each site were pooled together, and examined if the activity or product-selectivity of the pooled mutants were increased (FIG. 8). This reduced the number of screening reactions to 24, which is manageable when a high-throughput enzymatic assay is not available. […] One residue was chosen and subjected to site-saturation mutagenesis by using degenerative primers containing NNN or NNK. The plasmid library was then transformed into E. coli BL21 (DE3) cells and plated on agar plate containing autoinduction media^19. […] Subsequently, the colonies were collected and resuspended in phosphate saline buffer. Equal number of cells was taken for lysis and cell lysate reactions were carried out in capped SPME-GC vials at 28° C. for 2 days. HS-SPME-GCMS analysis was used to quantify the amount of irones produced by each pooled-colony reaction. […] 24 residues including the control Gly85 (G85m) were subjected to site-saturation mutagenesis, using pMT1 as the template. […] The amount of cis-α-irone produced was estimated based on the area under the gas chromatogram curve (AUC). The fold change is calculated by comparing the AUC of cis-α-irone produced by the mutant enzyme to that of non-mutated.
# For each pMT mutant, it was transformed into BL21 and grown in autoinduction media with 5 mM lactose at 20° C. for 36 hrs. Then, cells were pelleted and concentrated 10 times by adding 1 ml of PBS. The OD600 was measured and 40*600 OD*ul cells were transferred into a new 1.5 ml tube. The cells were spun down and resuspended in 600 μl of lysis buffer (1×DNase buffer, 150 mM NaCl, 0.5% glycerol, 1 mg/ml lysozyme and 20U of DNasel). The cells were incubated for 2 hrs at 20° C. with shaking at 300 rpm. Following that, 2 cycles of freeze-thaw was done to completely lyse the cells. At the end of the 2nd thawing, the cell lysate was used to setup a 1 ml reaction in 2 ml GC vials. The reaction consisted of 50 mM Tris (pH7), 10 mM MgCl2, 60 mM NaCl, 0.2 mM SAM and 10 mg/L of psi-ionone and caryophyllene each. To this, 500 μl of cell lysate was added while the remaining 100 μl was used for SDS-PAGE to analyze the total and soluble protein expression. The reaction was incubated for 2 days at 28° C., 300 rpm prior to extraction of cis-α-irone with 500 μl hexane. From this, 20 μl of organic layer was taken into 180 μl hexane for GCMS analysis.
# For the mutant pMT activity screening, the reactants and products were analyzed by head space solid phase microextraction (HS-SPME) coupled with an Agilent 5977B gas chromatography (GC) system equipped with Agilent DB-5 ms column (30 m×250 μm×0.25 μm) and mass spectrometry (MS) with high efficiency source. The reaction mixtures were carried out in SPME vials which were incubated at 60° C. for 20 mins to allow the release of volatile compounds. The absorbent fiber (50/30 μm divinylbenzol/carboxen/polydimethyl-SPME fiber, SUPELCO) was then exposed to the headspace of the vial for 20 mins. The extracted analytes were desorbed at the GC inlet at 250° C. for 1 min and injected into GC with a split ratio of 200:1. The GC oven temperature increased from 50° C. to 140° C. at a rate of 10° C./min and held at 140° C. for 10 min. Subsequently, the temperature was increased to 320° C. at a rate of 60° C./min and held at 320° C. for 2 mins.
molecule,measurement,setting,value
B1,cis-α-irone content (percentage of cis-α-irone in the irone mixture),,~68%
same,fold change in cis-α-irone produced,pMT1_Y200 mutants,12.2
same,fold change in cis-α-irone produced,pMT2_C156 mutants,1.0
same,fold change in cis-α-irone produced,pMT2_F196 mutants,1.0
same,fold change in cis-α-irone produced,pMT2_L180 mutants,1.0
same,fold change in cis-α-irone produced,pMT2_L232 mutants,1.0
same,fold change in cis-α-irone produced,pMT2_M236 mutants,1.0
same,fold change in cis-α-irone produced,pMT2_S182 mutants,1.0
same,fold change in cis-α-irone produced,pMT2_T277 mutants,1.0
same,fold change in cis-α-irone produced,pMT2_V36 mutants,1.0
same,improvement of total turnover number (TTN),"vs pMT1, TTN = cis-α-irone produced / soluble pMT enzyme",> 12 fold
B2,irone production / methyltransferase activity towards psi-ionone (in words),,further improved the TTN of the enzyme
same,fold change in cis-α-irone produced,pMT6_C156 mutants,1.1
B3,fold change in cis-α-irone produced,pMT1_M236 mutants,0.0
B4,fold change in cis-α-irone produced,pMT1_R160 mutants,1.0
B5,fold change in cis-α-irone produced,pMT1_E153 mutants,0.0
B6,fold change in cis-α-irone produced,pMT1_E153 mutants,0.0
B7,fold change in cis-α-irone produced,pMT1_Y200 mutants,0.0
B8,fold change in cis-α-irone produced,pMT1_M236 mutants,2.6
B9,fold change in cis-α-irone produced,pMT1_M236 mutants,0.5
B10,fold change in cis-α-irone produced,pMT1_R160 mutants,0.0
B11,fold change in cis-α-irone produced,pMT1_R160 mutants,0.0
B12,fold change in cis-α-irone produced,pMT1_R160 mutants,1.5
B13,cis-α-irone content (percentage of cis-α-irone in the irone mixture),,~90%
same,fold change in cis-α-irone produced,pMT4_L180 mutants,1.8
same,fold change in cis-α-irone produced,pMT5_A102 mutants,1.0
same,fold change in cis-α-irone produced,pMT5_A202 mutants,1.0
same,fold change in cis-α-irone produced,pMT5_T104 mutants,1
B14,fold change in cis-α-irone produced,pMT1_M236 mutants,0.0
B15,irone production / methyltransferase activity towards psi-ionone (in words),,significantly increased the cis-α-irone concentration
same,β-irone share of the irone mixture,cell lysate with psi-ionone,~30%
same,fold change in cis-α-irone produced,pMT5_A202 mutants,4.3
same,fold change in cis-α-irone produced,pMT6_C156 mutants,1.0
same,fold change in cis-α-irone produced,pMT6_Y65 mutants,1.0
B16,irone production / methyltransferase activity towards psi-ionone (in words),,improved trans-α-irone production
same,fold change in cis-α-irone produced,pMT1_Y200 mutants,0.4
B17,fold change in cis-α-irone produced,pMT1_E153 mutants,0.0
B18,fold change in cis-α-irone produced,pMT1_Y200 mutants,2.0
B19,fold change in cis-α-irone produced,pMT1_R160 mutants,0.0
B20,fold change in cis-α-irone produced,pMT1_E153 mutants,0.0
B21,irone production / methyltransferase activity towards psi-ionone (in words),,increased both α- and β-irone production
B22,fold change in cis-α-irone produced,pMT1_Y200 mutants,0.2
B23,fold change in cis-α-irone produced,pMT1_Y200 mutants,0.1
B24,fold change in cis-α-irone produced,pMT1_M236 mutants,0.0
